Starred links: 1 amine or outer side, 2 acyl side, 3 side chain; linkers in the order of their positions; H or OH if unused. Non-standard residues stand in square brackets, D forms with d. Groups on a side chain read outwards from the residue. Primed or numbered codes have the meaning given here. No end group written: not given here. *: point of attachment. γGlu = O=C(O)[C@H](CCC(=O)[*:2])N[*:1]; Stearoyl = CCCCCCCCCCCCCCCCCC(=O)*; Palmitoyl = CCCCCCCCCCCCCCCC(=O)*; αMeF = C[C@](N)(Cc1ccccc1)C(=O)O; αMeK = C[C@](N)(CCCCN)C(=O)O; αMeS = C[C@](N)(CO)C(=O)O; PEG2′ = not defined here; Aib = CC(C)(N)C(=O)O
T1: glucose-dependent insulinotropic peptide (gastric inhibitory polypeptide) receptor (human, UniProt P48546 22-466)
T1 sequence (looked up): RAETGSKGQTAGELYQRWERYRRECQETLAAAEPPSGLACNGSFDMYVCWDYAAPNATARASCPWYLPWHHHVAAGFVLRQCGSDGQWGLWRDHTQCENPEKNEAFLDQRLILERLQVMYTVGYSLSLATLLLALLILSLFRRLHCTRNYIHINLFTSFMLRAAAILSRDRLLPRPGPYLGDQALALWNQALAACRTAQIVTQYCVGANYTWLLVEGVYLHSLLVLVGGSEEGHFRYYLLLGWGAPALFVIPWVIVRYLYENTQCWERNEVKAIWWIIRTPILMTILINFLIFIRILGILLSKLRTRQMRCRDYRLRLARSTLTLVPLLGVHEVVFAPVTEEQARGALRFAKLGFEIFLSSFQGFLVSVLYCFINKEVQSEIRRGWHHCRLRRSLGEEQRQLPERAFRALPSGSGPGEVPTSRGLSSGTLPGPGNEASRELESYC


Columns and labels:
Experiment in all cases: cell-based or functional assay
GLP-1 receptor = GLP-1 receptor (human, UniProt P43220 24-463)
glucagon receptor = glucagon receptor (human, UniProt P47871 26-477)
[1] = target: T1, glucose-dependent insulinotropic …

Chain of glucagon receptor (P47871 26-477): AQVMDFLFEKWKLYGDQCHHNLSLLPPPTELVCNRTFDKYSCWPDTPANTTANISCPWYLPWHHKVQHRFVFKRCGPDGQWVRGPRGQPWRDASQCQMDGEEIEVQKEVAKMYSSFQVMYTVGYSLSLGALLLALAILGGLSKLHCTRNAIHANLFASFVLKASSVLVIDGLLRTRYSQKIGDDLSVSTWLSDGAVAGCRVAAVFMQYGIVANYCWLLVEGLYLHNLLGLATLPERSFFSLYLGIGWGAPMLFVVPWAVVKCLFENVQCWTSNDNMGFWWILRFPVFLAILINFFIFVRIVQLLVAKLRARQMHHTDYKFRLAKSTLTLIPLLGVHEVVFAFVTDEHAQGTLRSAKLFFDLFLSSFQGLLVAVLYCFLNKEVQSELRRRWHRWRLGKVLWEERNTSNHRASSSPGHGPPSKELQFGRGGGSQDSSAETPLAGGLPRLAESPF

| Binder | Primary assay EC50 (cAMP), Mean pM GLP-1R (GLP-1 receptor) | Primary assay EC50 (cAMP), n1 (GLP-1 receptor) | Primary assay EC50 (cAMP), n2 (GLP-1 receptor) | Primary assay EC50 (cAMP), n1 (glucagon receptor) | Primary assay EC50 (cAMP), n2 (glucagon receptor) | Primary assay EC50 (cAMP), n1 [1] | Primary assay EC50 (cAMP), n2 [1] |
| --- | --- | --- | --- | --- | --- | --- | --- |
| H[Aib]EGS[αMeF]TEDV[αMeS]S[αMeF]LEGEAA[αMeK]E[αMeF]IA[αMeF]VV[αMeK]GG-NH2 (N-terminus assumed; SMILES CC[C@H](C)[C@H](NC(=O)[C@](C)(Cc1ccccc1)NC(=O)[C@H](CCC(=O)O)NC(=O)[C@](C)(CCCCN)NC(=O)[C@H](C)NC(=O)[C@H](C)NC(=O)[C@H](CCC(=O)O)NC(=O)CNC(=O)[C@H](CCC(=O)O)NC(=O)[C@H](CC(C)C)NC(=O)[C@](C)(Cc1ccccc1)NC(=O)[C@H](CO)NC(=O)[C@](C)(CO)NC(=O)[C@@H](NC(=O)[C@H](CC(=O)O)NC(=O)[C@H](CCC(=O)O)NC(=O)[C@@H](NC(=O)[C@](C)(Cc1ccccc1)NC(=O)[C@H](CO)NC(=O)CNC(=O)[C@H](CCC(=O)O)NC(=O)C(C)(C)NC(=O)[C@@H](N)Cc1c[nH]cn1)[C@@H](C)O)C(C)C)C(=O)N[C@@H](C)C(=O)N[C@@](C)(Cc1ccccc1)C(=O)N[C@H](C(=O)N[C@H](C(=O)N[C@@](C)(CCCCN)C(=O)NCC(=O)NCC(N)=O)C(C)C)C(C)C) [SEQ ID NO 28] | 4620 pM | 4.6 nM | 4.7 nM | 100 nM | 100 nM | 100 nM | 100 nM |
| H[Aib]EGS[αMeF]TVDV[αMeS]S[αMeF]LEGEAA[αMeK]E[αMeF]IA[αMeF]VV[αMeK]GG-NH2 (N-terminus assumed; SMILES CC[C@H](C)[C@H](NC(=O)[C@](C)(Cc1ccccc1)NC(=O)[C@H](CCC(=O)O)NC(=O)[C@](C)(CCCCN)NC(=O)[C@H](C)NC(=O)[C@H](C)NC(=O)[C@H](CCC(=O)O)NC(=O)CNC(=O)[C@H](CCC(=O)O)NC(=O)[C@H](CC(C)C)NC(=O)[C@](C)(Cc1ccccc1)NC(=O)[C@H](CO)NC(=O)[C@](C)(CO)NC(=O)[C@@H](NC(=O)[C@H](CC(=O)O)NC(=O)[C@@H](NC(=O)[C@@H](NC(=O)[C@](C)(Cc1ccccc1)NC(=O)[C@H](CO)NC(=O)CNC(=O)[C@H](CCC(=O)O)NC(=O)C(C)(C)NC(=O)[C@@H](N)Cc1c[nH]cn1)[C@@H](C)O)C(C)C)C(C)C)C(=O)N[C@@H](C)C(=O)N[C@@](C)(Cc1ccccc1)C(=O)N[C@H](C(=O)N[C@H](C(=O)N[C@@](C)(CCCCN)C(=O)NCC(=O)NCC(N)=O)C(C)C)C(C)C) [SEQ ID NO 30] | 88600 pM | 80 nM | 97 nM | 100 nM | 100 nM | 100 nM | 100 nM |
| HXEGTFTSDVSSYLEGQAAKEFIAWLVKGRK (Aib 2; K(ε-(PEG)2-(PEG)2-γE-Stearate) after R30; C-terminal amide) [SEQ ID NO 6] | 5.1 pM | 0.0048 nM | 0.0053 nM | 22 nM | 22 nM | 22 nM | 22 nM |
| H[Aib]EGS[αMeF]TTDV[αMeS]S[αMeF]LEGEAA[αMeK]E[αMeF]IA[αMeF]VV[αMeK]GG-NH2 (N-terminus assumed; SMILES CC[C@H](C)[C@H](NC(=O)[C@](C)(Cc1ccccc1)NC(=O)[C@H](CCC(=O)O)NC(=O)[C@](C)(CCCCN)NC(=O)[C@H](C)NC(=O)[C@H](C)NC(=O)[C@H](CCC(=O)O)NC(=O)CNC(=O)[C@H](CCC(=O)O)NC(=O)[C@H](CC(C)C)NC(=O)[C@](C)(Cc1ccccc1)NC(=O)[C@H](CO)NC(=O)[C@](C)(CO)NC(=O)[C@@H](NC(=O)[C@H](CC(=O)O)NC(=O)[C@@H](NC(=O)[C@@H](NC(=O)[C@](C)(Cc1ccccc1)NC(=O)[C@H](CO)NC(=O)CNC(=O)[C@H](CCC(=O)O)NC(=O)C(C)(C)NC(=O)[C@@H](N)Cc1c[nH]cn1)[C@@H](C)O)[C@@H](C)O)C(C)C)C(=O)N[C@@H](C)C(=O)N[C@@](C)(Cc1ccccc1)C(=O)N[C@H](C(=O)N[C@H](C(=O)N[C@@](C)(CCCCN)C(=O)NCC(=O)NCC(N)=O)C(C)C)C(C)C) [SEQ ID NO 29] | 801 pM | 0.78 nM | 0.82 nM | 100 nM | 100 nM | 100 nM | 100 nM |
| H[Aib]EGS[αMeF]TSDV[αMeS]S[αMeF]LEGEAA[αMeK]E[αMeF]IA[αMeF]VV[αMeK]GGK([γGlu-Palmitoyl])-NH2 (N-terminus assumed; SMILES CCCCCCCCCCCCCCCC(=O)N[C@@H](CCC(=O)NCCCC[C@H](NC(=O)CNC(=O)CNC(=O)[C@](C)(CCCCN)NC(=O)[C@@H](NC(=O)[C@@H](NC(=O)[C@](C)(Cc1ccccc1)NC(=O)[C@H](C)NC(=O)[C@@H](NC(=O)[C@](C)(Cc1ccccc1)NC(=O)[C@H](CCC(=O)O)NC(=O)[C@](C)(CCCCN)NC(=O)[C@H](C)NC(=O)[C@H](C)NC(=O)[C@H](CCC(=O)O)NC(=O)CNC(=O)[C@H](CCC(=O)O)NC(=O)[C@H](CC(C)C)NC(=O)[C@](C)(Cc1ccccc1)NC(=O)[C@H](CO)NC(=O)[C@](C)(CO)NC(=O)[C@@H](NC(=O)[C@H](CC(=O)O)NC(=O)[C@H](CO)NC(=O)[C@@H](NC(=O)[C@](C)(Cc1ccccc1)NC(=O)[C@H](CO)NC(=O)CNC(=O)[C@H](CCC(=O)O)NC(=O)C(C)(C)NC(=O)[C@@H](N)Cc1c[nH]cn1)[C@@H](C)O)C(C)C)[C@@H](C)CC)C(C)C)C(C)C)C(N)=O)C(=O)O) [SEQ ID NO 32] | 27 pM | 0.036 nM | 0.018 nM | 90 nM | 90 nM | 90 nM | 90 nM |

More lines, now with the values ahead:

| Primary assay EC50 (cAMP), Mean pM GLP-1R (GLP-1 receptor) | Primary assay EC50 (cAMP), n1 (GLP-1 receptor) | Primary assay EC50 (cAMP), n2 (GLP-1 receptor) | Primary assay EC50 (cAMP), n1 (glucagon receptor) | Primary assay EC50 (cAMP), n2 (glucagon receptor) | Primary assay EC50 (cAMP), n1 [1] | Primary assay EC50 (cAMP), n2 [1] | Binder |
| --- | --- | --- | --- | --- | --- | --- | --- |
| 100 pM | 0.064 nM | 0.14 nM | 25 nM | 25 nM | 25 nM | 25 nM | H[Aib]EGS[αMeF]TSDV[αMeS]S[αMeF]LEGEAAK([PEG2′-PEG2′-γGlu-Stearoyl])E[αMeF]IA[αMeF]VV[αMeK]GG-NH2 [SEQ ID NO 33] |
| 3260 pM | 4.9 nM | 1.7 nM | 89 nM | 27 nM | 89 nM | 27 nM | H[Aib]EGS[αMeF]TDDV[αMeS]S[αMeF]LEGEAA[αMeK]E[αMeF]IA[αMeF]VV[αMeK]GGK([γGlu-Palmitoyl])-NH2 (N-terminus assumed; SMILES CCCCCCCCCCCCCCCC(=O)N[C@@H](CCC(=O)NCCCC[C@H](NC(=O)CNC(=O)CNC(=O)[C@](C)(CCCCN)NC(=O)[C@@H](NC(=O)[C@@H](NC(=O)[C@](C)(Cc1ccccc1)NC(=O)[C@H](C)NC(=O)[C@@H](NC(=O)[C@](C)(Cc1ccccc1)NC(=O)[C@H](CCC(=O)O)NC(=O)[C@](C)(CCCCN)NC(=O)[C@H](C)NC(=O)[C@H](C)NC(=O)[C@H](CCC(=O)O)NC(=O)CNC(=O)[C@H](CCC(=O)O)NC(=O)[C@H](CC(C)C)NC(=O)[C@](C)(Cc1ccccc1)NC(=O)[C@H](CO)NC(=O)[C@](C)(CO)NC(=O)[C@@H](NC(=O)[C@H](CC(=O)O)NC(=O)[C@H](CC(=O)O)NC(=O)[C@@H](NC(=O)[C@](C)(Cc1ccccc1)NC(=O)[C@H](CO)NC(=O)CNC(=O)[C@H](CCC(=O)O)NC(=O)C(C)(C)NC(=O)[C@@H](N)Cc1c[nH]cn1)[C@@H](C)O)C(C)C)[C@@H](C)CC)C(C)C)C(C)C)C(N)=O)C(=O)O) [SEQ ID NO 35] |
| 43 pM | 0.039 nM | 0.048 nM | 93 nM | 93 nM | 93 nM | 93 nM | H[Aib]EGS[αMeF]TSDV[αMeS]S[αMeF]LEGEAAK([γGlu-Palmitoyl])E[αMeF]IA[αMeF]VV[αMeK]GG-NH2 (N-terminus assumed; SMILES CCCCCCCCCCCCCCCC(=O)N[C@@H](CCC(=O)NCCCC[C@H](NC(=O)[C@H](C)NC(=O)[C@H](C)NC(=O)[C@H](CCC(=O)O)NC(=O)CNC(=O)[C@H](CCC(=O)O)NC(=O)[C@H](CC(C)C)NC(=O)[C@](C)(Cc1ccccc1)NC(=O)[C@H](CO)NC(=O)[C@](C)(CO)NC(=O)[C@@H](NC(=O)[C@H](CC(=O)O)NC(=O)[C@H](CO)NC(=O)[C@@H](NC(=O)[C@](C)(Cc1ccccc1)NC(=O)[C@H](CO)NC(=O)CNC(=O)[C@H](CCC(=O)O)NC(=O)C(C)(C)NC(=O)[C@@H](N)Cc1c[nH]cn1)[C@@H](C)O)C(C)C)C(=O)N[C@@H](CCC(=O)O)C(=O)N[C@@](C)(Cc1ccccc1)C(=O)N[C@H](C(=O)N[C@@H](C)C(=O)N[C@@](C)(Cc1ccccc1)C(=O)N[C@H](C(=O)N[C@H](C(=O)N[C@@](C)(CCCCN)C(=O)NCC(=O)NCC(N)=O)C(C)C)C(C)C)[C@@H](C)CC)C(=O)O) [SEQ ID NO 34] |

From patent US20200079833A1 (AstraZeneca / MedImmune, published 2020)
